Patent US20200377609A1

Key:
CAR-3 = assay: flow cytometry; clonal supernatant on control CAR-3 T cells, FITC goat anti-rabbit F(ab')2 detection
CAR-2 = assay: flow cytometry; clonal supernatant on control CAR-2 T cells, FITC goat anti-rabbit F(ab')2 detection
anti-BCMA CAR [1] = assay: flow cytometry; clonal supernatant on anti-BCMA CAR T cells, FITC goat anti-rabbit F(ab')2 detection
BCMA-AM1 [2] = assay: flow cytometry; supernatant on CAR-transduced Jurkat cells (BCMA-AM1), FITC goat anti-rabbit F(ab')2 detection
BCMA-AM2 [3] = assay: flow cytometry; supernatant on CAR-transduced Jurkat cells (BCMA-AM2), FITC goat anti-rabbit F(ab')2 detection
anti-BCMA CAR [4] = assay: flow cytometry; supernatant on CAR-transduced Jurkat cells (panel BCMA WT), FITC goat anti-rabbit F(ab')2 detection
BCMA-AM1 [5] = assay: flow cytometry; supernatant on CAR-transduced Jurkat cells (panel BCMA-AM1), FITC goat anti-rabbit F(ab')2 detection
BCMA-AM2 [6] = assay: flow cytometry; supernatant on CAR-transduced Jurkat cells (panel BCMA-AM2), FITC goat anti-rabbit F(ab')2 detection

CAR+ (gate frequency) (CAR-3) | CAR+ (gate frequency) (CAR-2) | CAR+ (gate frequency) (anti-BCMA CAR [1]) | FITC+ (gate frequency) (BCMA-AM1 [2]) | FITC+ (gate frequency) (BCMA-AM2 [3]) | FITC+ (gate frequency) (anti-BCMA CAR [4]) | FITC+ (gate frequency) (BCMA-AM1 [5]) | FITC+ (gate frequency) (BCMA-AM2 [6]) | Binder
0.14 | 0.1 | 58.2 |  |  |  |  |  | Clone 63-1 (antibody, V domains shown) VH: QEQLEESGGDLVKPGASLTLTCTASGFSFSSGYWICWVRQAPGKGLEWIACIYTRSGGSTHYASWAKGRFTTSKTSSTTVTLQMTSLTAADMATYFCARDPYVLSAGPDNVLWGPGTLVTVSS VL: ALVMTQTPSPVSAAVGGTVTINCQASESIGSDLGWYQQKPGQPPKFLIYWASTLVSGVPSRFEGSGSGTQFTLTISDLECDDAATYYCAGYESLSNDGNAFGGGTEVVVK
0.15 | 0.067 | 47.1 |  |  |  |  |  | Clone 154-7 (antibody, V domains shown) VH: QSLEESGGDLVKPEGSLTLTCTASGFSFSSSYWICWVRQAPGKGLEWIACIYTANSGRTVYASWAKGRFTISKTSSTTVTLQLPSLTAADTATYFCARDIYVLTTTDNLWGPGTLVTVSS VL: ALVMTQAPSPVSAAVGGTVTISCQASQPIGSDLVWYQQKPGQPPKLLIYYASDLASGVPSRFKGSGSGTRFTLTISGVECDDAATYYCAGYKNYDHDDCGFGGGTEVVVK
 |  |  | 82.4 | 91.6 |  |  |  | Clone 77-9 (antibody, V domains shown) VH: QSLEESGGALVKPGASLALTCTASGFSFNLRHYMCWVRQAPGKGLEWIGCVHGGSSGGTYYASWTKGRFTISKTSSTTVTLQMTSLTAADTATYFCAREDDIMMAGEFSLWGPGTLVTVSS VL: DIVMTQTPSSVEASVGGTVTIKCQASEDIESYLVWYQQKPGQPPKLLIYQASNLASGVPSRFYGSGSGTQFTLTISDLECADASTYYCQSYVEGGVDVVFGGGTEVVVK
 |  |  | 83.4 | 90.2 |  |  |  | Clone 83-3 (antibody, V domains shown) VH: QSLEESGGDLVKPGASLTLTCTASGFSFNLRHYMCWVRQAPGKGLEWIGCVHGGSSSGTYYASWAKGRFTISKTSSTTVTLQMTSLTAADTATYFCTREDDIMMAGEFGLWGPGTLVTVSS VL: DIVMTQTPSSVSEPVGGTVTIKCQASEDIESYLVWYQQKPGQPPKLLIYQASNLASGVPSRFSGSGSGTEYTLTISDLECADAATYYCQSYIEGGVDVVFGGGTEVVVK
0.093 | 0.11 | 42.4 |  |  |  |  |  | Clone 137-2 (antibody, V domains shown) VH: QEQLVESGGGLVQPEGSLTLTCTASGFSFSLSNWICWVRQAPGKGLEWVACIYVSVSGNTRYASWAKGRFTISETSSTTVTLQMTGLTAADTATYFCARDPFSLVSVDRSLWGPGTLVTVSS VL: ALVMTQTPSPVSAAVGGTVTINCQASQSIGSDLSWFQQKPGQPPKLLMYWASSLASGVPSRFKGSGSGTQFTLTISDLECDDAATYYCAGYVNYNNDDAAFGGGTEVVVK
 |  |  | 82.7 | 0.042 |  |  |  | Clone 89-10 (antibody, V domains shown) V domain 1: QEQLVESRGGLVKPGGSLTLTCKASGFSFSTGYYACWVRQAPGKGLELSACVDTGSGDTFYASWARGRFTISKTSSSTVTLQMTSLTVADTATYFCARTALVMTDFYFNLWGPGTLTTVSS V domain 2: ALVMTQTPASVEAAVGGTVTINCQASQWISNELSWYQQKPGQPPKLLIYLASTLASGVPSRFKGSGSGTEFTLTISDLECADAATYYCQQGYNIGHLDNAFGGGTEVVVK
1.81 | 0.09 | 41.7 |  |  |  |  |  | Clone 18-4 (antibody, V domains shown) VH: QERLVESGGGLVQPEGSLTLTCTASGLTLSNYWLCWVRQAPGKGLEWIACIYTGNYGSAYYANWVKGRFTISKASSTTVTLQMTSLTAADTATYFCARDPYTLTNVDVLWGPGTLVTVSS VL: ALVMTQTPSPVSAAVGGTVTINCQASQSIGSDLAWYQQRPGQPPKLLIYWASTLASGVPSRFSGSGSGTQFTLTISDLECDDAATYYCTGYISYNDDNAAFGGGTEVVVK
0.11 | 0.18 | 60.9 |  |  | 75.2 | 0.14 | 95.3 | Clone 9-1 (antibody, V domains shown) VH: QQQLEESGGGLVKPGGTLTLTCTASGFSFSSGQWMCWVRQAPGKGLELIACIYTSAGGSTHYASWATGRFTISKTSSTTVTLQMTSLTAADTATYFCARDPYLLSAGPDNNLWGPGTLVAVSS VL: ALVMTQTPSPVSAAVGGTVTINCQASQSIGSDFTWWQQKPGQPPKLLIYWASTLASGVSSRFKGSGSGTQFTLTISDLECDDAATYYCAGYVSYSDDGNAFGGGTEVVVK
0.13 | 0.067 | 51.8 |  |  |  |  |  | Clone 9-9 (antibody, V domains shown) VH: QQQLEESGGGLVKPGGTLTLTCTASGFSFSSGQRMCWVRQAPGKGLELIACIYTSAGGSTHYASWATGRFTISKTSSTTVTLQMTSLTAADTATYFCARDPYLLSAGPDNNLWGPGTLVAVSS VL: ALVMTQTPSPVSAAVGGTVTINCQASQSIGSDFTWWQQKPGQPPKLLIYWASTLASGVSSRFKGSGSGTQFTLTISDLECDDAATYYCAGYVSYSDDGNAFGGGTEVVVK
0.067 | 0.22 | 31.5 |  |  |  |  |  | Clone 80-7 (antibody, V domains shown) VH: QEQLEESGGDLVKPEGSLTLTCTASGFSFSSAYWICWVRQVPGKGLEWIACIYTGSGGRSHYASWAKGRFTISKTSSTTVTLQMTSLTAADTATYFCARDPYILSAGPDNVLWGPGTLVTVSS VL: ALVMTQTPSPVSAAVGGTVTINCQASQSIGSDLGWFQQKPGQPPKLLIYWASTLASGVPSRFEGSGSGTQFTLTISDLECDDAATYYCAGYESLSNDGNAFGGGTEVVVK
